Results as given in US20160040149A1, “Compositions Having Dicamba Decarboxylase Activity and Methods of Use” (priority 2013, published 2016).

Experiment: Saturation mutagenesis of SEQ ID NO:109: dicamba decarboxylation activity of point mutants (CO2 released), fold of backbone (Tables 7, 8, Megatable 1)
Conditions: decarboxylation activity (CO2 released) of point mutant vs unmutated backbone protein; backbone SEQ ID NO: 109

Molecule | Fold Activity [fold]
30 (protein, Enterobacter aerogenes) MARGKIALEEHVSTPENNRLWDSTGEANRNGSEYMQDVERRLLDRSIQLEEMAQRNIDHVILSLTSPGAQSILDKAKAVSFARDTNDFIVDNYVKPNPDKFSAFATLALQNPEAAAEELERAVKKLGMKGALINGYTNVKDSEHGLYLDDESMLVFWDKVNELNVPVYLHPREPLEGPARGIYTGYESLIGSAWGFAQETAVHAIRLMMSGLFDRYPNLNLVLGHLGEGLVHMLPRTQHRLYRQRFGCGLGKAEKPLMHYLQNNFIVTTSGHFNTHSLNNAIEVMGADRVMFSVDYPYEDIHQACDWFDPLEMDEGLKEKIAWGNASRVFNIK | 2
31 (protein, listed as Agrobacterium sp.) MAQGKVALEEHFAIPETLQDSAGFVPGDYWKELQHRLLDIQDTRLKLMDAHGIETMILSLNAPAVQAIPDKTKAIEIARRANDVLAEECAKRPDRFLAFAALPLQDPDAATEELQRCVNDLGFVGALVNGFSQEGDGQTPLYYDLPQYRPFWGEVEKLDVPFYLHPRNPLPQDSRIYDGHPWLLGPTWAFAQETAVHALRLMASGLFDEHPRLNIILGHMGEGLPYMMWRIDHRNAWVKLPPRYPAKRRFMDYFNENFHITTSGNFRTQTLIDAILEIGADRILFSTDWPFENIDHASDWFNATSIAEADRVKIGRTNARRLFKLDGA | 1.7
36 (protein, listed as Agrobacterium sp.) MAQGKVALEEHFAIPETLQDSAGFVPGDYWTELQHRLLDIQDTRLKLMDAHGIETMILSLNAPAVQAIPDKTKAIEIARRANDALAEECAKRPNRFLAFAALPLQDPDAATQELQRCVNDLGFVGALVNGFSQEGDGQIPLYYDLPQYRPFWGEVEKLDVPFYLHPRNPLPQDSRIYDGHPWLLGPTWAFAQETAVHALRLMASGLFDEHPRLNIILGHMGEGLPYMMWRIDHRNAWVKLPPRYPAKRRFVDYFNENFHITTSGNFRTQTLIDAILEIGADRILFSTDWPFENIDHASDWFHATSIAEADRVKIGRTNARRLFKLDGR | 2
39 (protein, listed as Agrobacterium fabrum) MAQGKVALEEHFAIPETLQDSAGFVPGDCWTELQHRLLDIQDTRLKLMDAHGIETMILSLNAPAVQAIPDKTKAIEIARRANDALAEECAKRPDRFLAFAALPLQDPDAATQELRRCVNDLGFVGALVNGFSQEGDGQTPLYYDLPQYRPFWGEVEKLDVPFYLHPRNPLPQDSRIYDGHPWLLGPTWAFAQETAVHALRLMASGLFDEHPRLDIILGHMGEGLPYMMWRIDHRNAWVKLPPRYPAKRRFVDYFNENFHITTSGNFRTQTLIDAILEIGADRILFSTDWPFENIDHASDWFHATSIAEADRVKIGRTNARRLFKLDGR | 1.6
44 (protein, listed as Mycobacterium avium) MARIITVEEHFQHPEVSARVAELTGPAVEGLAEFGNAFSLDPDSTARLGGNRLAHMDQVGIDVQVVSHGNGSPGTLQHPEAVELCRRVNNDLAAQIAENPDRFRGFATLPLYDPAAAAEELRRCVGDLGFVGALIAGSYDGLFLDDERFDPILTAAEAVDFPIYVHPGLPEAPVSQRYYAGSWPASVHMMFSGPAFGWHAEAGIHIVRLILSGALDRHPTLKLLSGHWGELAAFYLERLDETLGLLPTGLERAPSDYYRQQVWITPSGMYNQNQLNFMTAELGAQRIIYSEDFPYVVRDNVSTFLEQAGLSEADTHAIAHTNAEALLRI | 0.7
37 (protein, listed as Burkholderia gladioli) MATFSNVKKIALEEHFAIAETIEDSAGFVPPDDWVELRGRLLDIQERRLAEMDRAGIELMVLSLNAPAVQAIRDPRQAVELARRANDYLAEQVARRPDRFRAFAALPMQAPEQAIREAERCVRELGFVGALVNGFSEAEDGAELYYDLPRYRPFWAALEALEVPFYLHPRNPLAGRAPIYDGHSWLMGPTWAFGQETAVHALRLMGSGLFDAHPRLQIILGHMGEGLPYSMWRVDNRNAWVSAKPNYPAEKPIAEYFRNNFWLTTSGNFRTQTLIDAMLEIGSDRILFSADWPFENMDHAADWFDHASISENDRIKIGRGNAERLLKLGR | 1.6
46 (protein, listed as Rhodococcus opacus) MARIITLEEHYLDPAIAAASAPLARELSPDFAAAYDPASGLSYTPSAQVLQDLGQRRIADMDTHGISMQVLSCLTTQQVPADVAPDLVRAANDTAAAAVRAHPDRFAAFAALPTTAPDAAATELARCIDDLGFVGTMINGRTDGEFLDAPRFDPILATAAARNVPIYLHPAVPPRATSDSNYAGLAPLVTARLQTSAWGWHQETAVHFLHLVLSGVLDRYPNLQFILGHWGEMIPFYLDRLDEALPQAVTNLDRTISDYVRENVYITPSGMFNQAQLQYCVETLGVDRILYSVDYPFIGNDGAVSFLDEANLPDEAKHQIAHQNTEKLLGL | 1.1
47 (protein, listed as Serratia odorifera) MAKIICLEEHTLDKALVMASMPAALAQAPFLSDWGKTITDGNLPDRSRPQIEKNDLINVKGADIGRGRLDDMDEAGITMQVLSVGGFPHLISAAEGVDLNRAANDRLANAVNAHPDRFAAFATLPWAQPDAAEKELERAVKELGFKGALLNGRPSIHFLDHPDYDGLLARFNALGVPLYLHPGLPVRSVQQAYYSGFSDEVTARLSMFGWGWHHEAGIHLLRLILSGAFDKYPNLQVISGHWGEMLPFWLQRLDDSLPQAATGLRRTITQTFREQVYVTPSGMLTLPHFQFIYALLGAERILFSVDYPYQTLDGVKAFIQSLPVPEEAKEAIAFRNAERLFGLTS | 1.2
42 (protein, Agrobacterium radiobacter) MAQGKIALEEHFAIPDTLQDSAGFVPGDYWKELSARLLDIHEQRLMQMDAYGIEKMILSLNAPAVQAIPDKAKALEISRRANDFLAEQCARNPDRFLGFAALPLQDPDAATAELQRCVKTLGFVGALVNGFSQEGDGVTPLYYDLPQYRGFWAEVEKLAVPFYLHPRNPLPQDSRIYAGHPWLMGPTWAFAQETAVHALRLVGSGLFDDHPALRIILGHMGEGLPYMMWRIDNRNAWVKVAPNYPAKRRIADYFNENFYITTSGNFRTQSLVDAMLEIGADRILFSTDWPFENIDHASDWFDTATISEADRLKIGRTNAATLFNLES | 1.7
38 (protein, listed as Variovorax paradoxus) MAQGKIGLEEHFAIPQTLQDSAGFVPGVYWKELSSRLLDIHDGRLRQMDEHGMEMMILSLNAPAVQAVADPVKAYELAVRANDFLAEQVAKRPDRFQAFAALPMQDPEKATQELERCMSVLGFRGALVNGFSQVGTPDNVAYYDAPQYAPFWAAAERLDAPFYLHPRNPIASWAQIYEGHPWLLGPTWAFAQETAVHALRLMASGLFDRHPGLKIILGHLGEGLPYNMWRVDHRNAWVKAPKGYPAKRKLCEYFQENFYLTTSGNFRTQTLIDAMLEVGSDRILFSTDWPFENIDHASNWFNDTSISEADRKKIGRTNAMSLFKLA | 1.8
45 (protein, Mycobacterium sp) MANDDLAEVIAAHPDRFAGFAALPMRDPQAAAVELQRAVGTHGFCGAMINGLIEGRFLDDPAFAPLLSTAADLGVPLYLHPSFPPPQVAEIYFGGLAPVLGDLLATAGWGWHAETALHVLRLVATGVFDRLPELWVIVGHMGEMIPFALARIDTVLSPVAQLRQPVAQYFQTNVWFTTSGYTTFPPLQCALSTVGIDRLIFSVDYPYTDNTSARALLDTAPISPVDREKLAHGTVEALLRV | 1.7
40 (protein, listed as Rhodococcus jostii) MAQGKIALEEHFAIPETLNDSAGFVPGTYWDELQARLLDIQDVRLKLMDEHNIETMILSLNAPAVQAIPERERAIDIARRANDVLAEECAKRPDRFRGFAALPLQDPDAAAEELRRCVTELGFVGALVNGFSQSATVDGGSTPLYYDLPRYRPFWAEVERLDVPFYLHPRNPLNQDARIYEGHPWLLGPTWAFAQETAVHALRLMASGLFDEHPGLRIVLGHMGEGIPAMLWRIDHRNAWVDVPPAYPAKRRMVDYFTENFFVTTSGNFRTQTLIDLLLELGSERVMFSTDWPFENINHAAEWFDAASISEADRLKIGRTNAATLFKLDR | 1.4
34 (protein, Cupriavidus necator) MAQGKIGLEEHFAIPETLNDSAGFVPGDYWKELSRRLLDIQDDRLRQMDENGMEMMLLSLNAPAVQAVPDRKQACELAVRANDFLAEQVSRRPDRFQALAALPLQDPDFATVELTRCVNELGMRGALVNGFSQIDTPDNVVYYDAPQYASFWAAVEKLDVPFYLHPRNPIASWAQIYDGHPWLLGPTWAFGQETAVHALRLMASGLFDRHPALQIVLGHLGEGLPYSLWRIDNRNAWVKAPKTHPAKKTFRHYFQQNFHLTTSGNFHNQTLIDAILEIGADRILFSTDWPFENIDHAAKWFDSASISEADRTKIGRTNAMKLFKLVA | 1.6
35 (protein, Burkholderia sp) MAFKASRKIALEEHFAIDATVQDSAGFVPPSYWAELKRRLLDIHDRRIDEMDRNGVELMVLSLNAPTVQAVPNIKDAYDLSRRANDFLAEQIVKRPERFKGFAALPMQSPDLAARELERCVKELNFVGALVNGFSQVEESGTALYYDLPQYRQFWSVVQALDVPFYLHPRNPLPAHAPIYEGHPWLLGPTWAFGQETAVHALRLMGSGLFDEYPELKIILGHMGEGLPYSMWRIDNRNAWVETQPNYPAKKRIAEYFHKNFWLTTSGNFRTQTLIDAMLEIGSDRILFSTDWPFENVDHAAQWFDDAAISENDRIKIARTNAARLFKLEP | 2.2
33 (protein, listed as Rhizobium leguminosarum) MAQGKIALEEHFAIPETLQDSAGFVPGDYWKELSARLLDIQEKRLRLMDAHGIEKMILSLNAPAVQAIPDRAKALEISRRANDFLAEQCVKNPNRFLGFAALPLQDPDAATQELQRCVTTMGFVGALVNGFSQEGDGTTPLYYDLPQYRSFWAEVEKLNVPFYLHPRNPLPQDSRIYAGHSWLMGPTWAFAQETAVHALRLMGSGLFDEHPALRIIVGHMGEGLPYMMWRIDNRNAWVKVEKSYPAKRPIADYFNENFYITTSGNFRTQSLIDAMLEIGADRILFSADWPFENIDHAANWFDSATISEADRLKIGRTNAVSLFKLDR | 1.6
43 (protein, listed as Rhizobium leguminosarum) MAQGKIALEEHFAIPETLQDSAGFVPGDYWTELSARLLDIQDKRLRLMDTHGIEKMILSLNAPAVQAIPDKAKAVEISRRANDFLAEQCVKNPNRFLGFAALPLQDPDAATQELQRCVTTMGFVGALVNGFSQEGDGTTPLYYDLPQYRPFWAEVEKLDVPFYLHPRNPLPQDSRIYAGHSWLMGPTWAFAQETAVHALRLMGSGLFDEHPALRIIVGHMGEGLPYMMWRIDNRNAWVKVEKSYPAKRPIADYFNENFYITTSGNFRTQSLIDAMLEIGADRILFSADWPFENVDHAANWFDSATISEADRLKIGRTNAVSLFKLDR | 1
